Values joined by “and” are separate entries in the source; they are usually repeats but may differ in a detail not shown here. Identical values can stand only once. No end group written: not given here.

Sequences and labels used below:
B1: Nrp2 b1b2 domains (human neuropilin-2) (domain or fragment, UniProt O60462 276-595, looked up)
chain: QCNVPLGMESGRIANEQISASSTYSDGRWTPQQSRLHGDDNGWTPNLDSNKEYLQVDLRFLTMLTAIATQGAISRETQNGYYVKSYKLEVSTNGEDWMVYRHGKNHKVFQANNDATEVVLNKLHAPLLTRFVRIRPQTWHSGIALRLELFGCRVTDAPCSNMLGMLSGLIADSQISASSTQEYLWSPSAARLVSSRSGWFPRIPQAQPGEEWLQVDLGTPKTVKGVIIQGARGGDSITAVEARAFVRKFKVSYSLNGKDWEYIQDPRTQQPKLFEGNMHYDTPDIRRFDPIPAQYVRVYPERWSPAGIGMRLEVLGCDWT
notes: neuropilin-2 (Nrp2), human, b1b2 coagulation factor domains; Limits of the b1b2 construct are in the cited earlier work; also called soluble Nrp2; wild-type Nrp2
B2: Nrp1 b1b2 domains (human neuropilin-1) (domain or fragment, UniProt O14786 274-586, looked up)
chain: KCMEALGMESGEIHSDQITASSQYSTNWSAERSRLNYPENGWTPGEDSYREWIQVDLGLLRFVTAVGTQGAISKETKKKYYVKTYKIDVSSNGEDWITIKEGNKPVLFQGNTNPTDVVVAVFPKPLITRFVRIKPATWETGISMRFEVYGCKITDYPCSGMLGMVSGLISDSQITSSNQGDRNWMPENIRLVTSRSGWALPPAPHSYINEWLQIDLGEEKIVRGIIIQGGKHRENKVFMRKFKIGYSNNGSDWKMIMDDSKRKAKSFEGNNNYDTPELRTFPALSTRFIRIYPERATHGGLGLRMELLGCEVE
notes: neuropilin-1 (Nrp1), human, b1b2 coagulation factor domains; Limits of the b1b2 construct are in the cited earlier work; about residues 273-586 as I recall; also called soluble Nrp1; wild-type Nrp1
B3: C-furSema3F (peptide of the C-terminal basic domain of furin processed Sema3F; residues 740-779) (peptide, UniProt Q13275 740-779, looked up)
peptide: GLIHQYCQGYWRHVPPSPREAPGAPRSPEPQDQKKPRNRR
modifications: also: dimer via intermolecular disulfide (oxidized)
notes: semaphorin 3F (Sema3F), C-terminal basic domain of the furin processed form, residues 740-779; source: synthetic peptide (LifeTein, South Plainfield, NJ), oxidized and purified
B4: C-furSema3A (peptide of the C-terminal basic domain of furin processed Sema3A; residues 718-769) (peptide, UniProt Q14563 718-769, looked up)
peptide: MDEFCEQVWKRDRKQRRQRPGHTPGNSNKWKHLQENKKGRNRRTHEFERAPR
modifications: also: dimer via intermolecular disulfide (oxidized)
notes: semaphorin 3A (Sema3A), C-terminal basic domain of the furin processed form, residues 718-769; source: synthetic peptide (Neo-Peptide, Cambridge, MA), oxidized and purified

In the first test the target is T1, AP-fusion of the Sema3F Ig and basic domains (AP-Sema3F-Ig-basic; residues 605-779) (UniProt Q13275 605-779).
T1 construct: semaphorin 3F (Sema3F), Ig and basic domains, residues 605-779; source: CHO cells, large-scale transient transfection from pAPtag-5
T1 sequence (looked up): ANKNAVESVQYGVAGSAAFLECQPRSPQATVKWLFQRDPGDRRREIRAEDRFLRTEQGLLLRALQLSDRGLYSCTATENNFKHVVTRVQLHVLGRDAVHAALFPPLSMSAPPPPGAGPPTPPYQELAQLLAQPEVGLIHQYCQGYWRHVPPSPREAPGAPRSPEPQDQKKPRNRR
In words: AP-fusion solid-phase plate binding assay (competition); high density Nrp1 affinity plates (50 ng/µl); soluble Nrp1 or Nrp2 combined with AP-Sema3F-Ig-basic (181 µmole p-NPP hydrolyzed/min/L) in binding buffer (20 mM Tris pH 7.5, 50 mM NaCl), 1 hr at 25°C; whether the AP fusion was purified is not told.
Conditions: not given
As usually defined, the IC50 is the concentration that inhibits the measured activity by half. On to B1, for which the IC50 is 6200 nM.
Consider B2, for which the half-inhibitory concentration (IC50) was determined as 1200 nM.

Another test has as its target T2, AP-fusion of full length Sema3F (AP-Sema3F; residues 20-779) (UniProt Q13275 20-779).
T2 construct: source: CHO cells, large-scale transient transfection from pAPtag-5
T2 sequence (looked up): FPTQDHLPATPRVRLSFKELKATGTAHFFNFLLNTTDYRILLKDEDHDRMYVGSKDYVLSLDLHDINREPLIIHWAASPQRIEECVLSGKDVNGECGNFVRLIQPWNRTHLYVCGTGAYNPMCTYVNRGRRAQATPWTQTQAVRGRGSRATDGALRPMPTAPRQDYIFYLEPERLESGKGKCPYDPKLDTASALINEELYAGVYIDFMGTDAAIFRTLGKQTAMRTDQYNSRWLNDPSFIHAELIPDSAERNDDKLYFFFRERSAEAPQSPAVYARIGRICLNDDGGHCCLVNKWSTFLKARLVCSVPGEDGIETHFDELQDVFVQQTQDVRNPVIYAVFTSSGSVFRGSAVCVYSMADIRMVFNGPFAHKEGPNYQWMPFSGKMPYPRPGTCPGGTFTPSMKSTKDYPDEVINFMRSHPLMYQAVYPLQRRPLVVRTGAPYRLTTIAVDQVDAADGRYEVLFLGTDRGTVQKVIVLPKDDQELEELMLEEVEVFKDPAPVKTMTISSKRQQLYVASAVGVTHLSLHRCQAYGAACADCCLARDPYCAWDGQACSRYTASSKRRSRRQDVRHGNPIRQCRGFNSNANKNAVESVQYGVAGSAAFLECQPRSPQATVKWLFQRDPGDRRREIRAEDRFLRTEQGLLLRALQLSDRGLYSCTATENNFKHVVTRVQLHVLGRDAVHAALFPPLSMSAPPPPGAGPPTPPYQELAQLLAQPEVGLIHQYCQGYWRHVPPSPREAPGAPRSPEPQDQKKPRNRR
In words: AP-fusion solid-phase plate binding assay (competition); low density Nrp1 affinity plates; soluble Nrp1 or Nrp2 combined with AP-Sema3F (648 µmole p-NPP hydrolyzed/min/L) in incubation buffer (20 mM Tris pH 7.5, 300 mM NaCl), 1 h at 25°C; whether AP-Sema3F was purified is not told.
Conditions: not given
Consider B1, for which the 50% inhibitory concentration (IC50) worked out at 2700 nM.
Same read-out and setting: the value for B2 was 2000 nM.

A further test addresses AP-fusion of VEGF-A164 (AP-VEGF-A). The test can be described thus: AP-fusion solid-phase plate binding assay (competition); Nrp1 b1b2 adsorbed on 96 well plates (2.5 ng/µl, low density); soluble Nrp titrated with AP-VEGF-A (155 µmole p-NPP hydrolyzed/min/L) in 20 mM Tris pH 7.5, 300 mM NaCl, 1 hr at 25°C; retained AP activity read at 405 nm; whether AP-VEGF-A was purified is not given.
Conditions: not given
In turn, B1 registered an IC50 of 310000 nM.
On to B2, for which the half-inhibitory concentration (IC50) was determined as 1800 nM.

In the next test the target is VEGF-A165. The test can be described thus: AP-Nrp binding to VEGF-A affinity plates. The conditions noted are these: parent: est. 100; read off a plot.
As to “AP-Nrp1 b1b2, wild-type K350Q; K351N; K352G”, the percent of parent is 34%.
For the molecule “AP-Nrp2 b1b2, wild-type 301-DGR-303 replaced by TN (DGR/TN)”, the percent of parent was 310%.
For “AP-Nrp2 b1b2, wild-type Q353K; N354K; G355K”, the percent of parent came out at 510%.
“AP-Nrp1 b1b2, wild-type 299-TN-300 replaced by DGR (TN/DGR)”: the percent of parent is 11%.
For the molecule AP-Nrp1 b1b2, wild-type E304Q; R305Q, the percent of parent came to 38%.
Consider AP-Nrp1 b1b2, wild-type E285R, for which the percent of parent amounted to 41%.
As for AP-Nrp2 b1b2, wild-type Q307E; Q308R, the percent of parent came out at 60%.
Still for that read-out and setting: the value for AP-Nrp2 b1b2, wild-type R287E was 310%.

In a further test the target is AP-fusion of VEGF-A164 (AP-VEGF-A). The test can be described thus: AP-fusion solid-phase plate binding assay (competition); Nrp1 b1b2 adsorbed on 96 well plates (2.5 ng/µl, low density); soluble Nrp titrated with AP-VEGF-A (155 µmole p-NPP hydrolyzed/min/L) in 20 mM Tris pH 7.5, 300 mM NaCl, 1 hr at 25°C; retained AP activity read at 405 nm; whether AP-VEGF-A was purified is not given.
Conditions: not given
This is another data set of the same source.
Turning to B1, the concentration for half-maximal inhibition (IC50) is 120000 nM and 160000 nM and 200000 nM.
For B2, the 50% inhibitory concentration (IC50) was 1600 nM and 2000 nM.

Another test deals with B2. In words: AP-fusion solid-phase plate binding assay (competition); C-furSema peptides titrated with AP-VEGF-A (100 µmole p-NPP hydrolyzed/min/L) in incubation buffer on low density Nrp1 affinity plates, 1 h at 25°C; pair: peptide and adsorbed Nrp1. Conditions: both partners purified.
B3 displayed an IC50 of 22 nM.
Molecule B4 showed a 50% inhibitory concentration (IC50) of 67 nM.
